# Measurements published in patent US20250002562A1 (Scripps Research, published 2025).
# Changes are numbered by the printed parent chain.
# B1: SKAI-DS7 scFv (scFv, V domains shown)
# VH: EVQLLESGGGLVQTGGSLRLSCAASGFTFSDYAMSWVRQAPGKGLEWVSGIYHSGGNTYYADSVKGRFTISRDNSKNTLYLQMNSLRAEDTAVYYCARDAGPFDYWGQGTLVAV
# VL: QSVLTQPPSASGTPGQRVTISCSGSSSNIGSNAVSWYQQLPGTAPKLLIYDNNHRPSGVPDRFSGSKSGTSASLAISGLRSEDEADYYCGSWDDSLNAYVFGGGTKLTVL
# B2: SKAI-DS1 scFv (scFv, V domains shown)
# VH: EVQLLESGGGLVQTGGSLRLSCAASGFTFSDYAMSWVRQAPGKGLEWVSWIYSNDGNKYYADSVKGRFTISRDNSKNTLYLQMNSLRAEDTAVYYCARFPVPSWRNTWSSYDAMDVWGQGTLVTV
# VL: QSVLTQPPSASGTPGRRVTISCTGSSSNIGSNYVSWYQQLPGTAPKLLIYSDSNRPSGVPDRFSGSKSGTSASLAISGLRSEDEADYYCGTWDASLSGYVFGGGTKLTVL
# B3: SKAI-DS64 (antibody, V domains shown)
# VH: B1 VH with T14P, A33S, G55D, N57S, T58K, D99F, A100D, G101P, P102V, A113T
# VL: B1 VL
# notes: also called SKAI-DS64 human IgG antibody
# B4: SKAI-DS1 (antibody, V domains shown)
# VH: B2 VH
# VL: B2 VL
# notes: also called SKAI-DS1 human IgG antibody
# B5: SKAI-DS16 (antibody, V domains shown)
# VH: EVQLLESGGGLVQPGGSLRLSCAASGFTFSDYSMSWVRQAPGKGLEWVSWIYPDNGNTYYADSVKGRFTISRDNSKNTLYLQMNSLRAEDTAVYYCAKPKTSFDYWGQGTLVTV
# VL: B2 VL with R16Q, T23S, S35Y, S51D, D61G, A94Y, S97N
# notes: also called SKAI-DS16 human IgG antibody
# B6: SKAI-DS66 (antibody, V domains shown)
# VH: B5 VH with S33A, W50A, D54G, N55G, N57S, K98R, P99N, K100L, T101F, S102G
# VL: B1 VL with S23T, S35Y, N52D, N53S, H54N, N97S
# notes: also called SKAI-DS66 human IgG antibody
# B7: SKAI-DS3 (antibody, V domains shown)
# VH: EVQLLESGGGLVQPGGSLRLSCAASGFTFSDYSMSWVRQAPGKGLEWVSAISSDSSSTYYADSVKGRFTISRDNSENTLYLQMNSLRAEDTAVYYCAKAILRCIPLGCYYADAMDVWGQGTLVTV
# VL: B2 VL with R16Q, Y33D, S35T, S51A, N54K, T91A, A94Y, G98A
# notes: also called SKAI-DS3 human IgG antibody
# B8: SKAI-DS15 (antibody, V domains shown)
# VH: EVQLLESGGGLVQPGGSLRLSCAASGFTFSDYDMSWVRQAPGKGLEWVSMIYSGSSSKYYADSVKGRFTISRDNSKNTLYLQMNSLRAEDTAVYYCARVTGTCHSGSCYYSDAMDVWGQGTLVTV
# VL: B2 VL with R16Q, T23S, Y33D, S35N, S51D, T91A, A94D
# notes: also called SKAI-DS15 human IgG antibody
# Target: T1, SARS-CoV-2-B.1.617.2 (Delta variant) RBD (SARS-CoV-2 B.1.617.2 (Delta variant), UniProt P0DTC2 319-541)
# T1 construct: domain: RBD; also called Delta RBD; Delta antigen
# Experiment: ELISA of scFv from individual colonies on RBD antigens
row,Binder,binding result
1,B1,binds
2,B2,binds

# Target: T1, SARS-CoV-2-B.1.617.2 (Delta variant) RBD
# Experiment: ELISA on RBD antigen, human IgG at 1 µg/mL, O.D. 450 nm
row,Binder,binding result
1,B3,binds
2,B4,binds
3,B5,no binding (tested: 1 µg/mL)
4,B6,binds
5,B7,no binding (tested: 1 µg/mL)
6,B8,no binding (tested: 1 µg/mL)

# Target: T2, Omicron (B.1.1.529) RBD antigen (Genscript) (SARS-CoV2 Omicron variant (B.1.1.529), UniProt P0DTC2 319-541)
# T2 construct: domain: RBD; also called Omicron RBD; Omicron variant RBD
# Experiment: as above
row,Binder,binding result
1,B3,no binding (tested: 1 µg/mL)
2,B4,no binding (tested: 1 µg/mL)
3,B5,no binding (tested: 1 µg/mL)
4,B6,no binding (tested: 1 µg/mL)
5,B7,no binding (tested: 1 µg/mL)
6,B8,no binding (tested: 1 µg/mL)
